Source: publication PMC2211785 (The Journal of Experimental Medicine, 2004)

Target: JNK-2 (human (endogenous in HUVEC), UniProt P45984 1-424)
Assay: co-IP

B1: NFATc2 (natural protein)
chain: MNAPERQPQPDGGDAPGHEPGGSPQDELDFSILFDYEYLNPNEEEPNAHKVASPPSGPAYPDDVLDYGLKPYSPLASLSGEPPGRFGEPDRVGPQKFLSAAKPAGASGLSPRIEITPSHELIQAVGPLRMRDAGLLVEQPPLAGVAASPRFTLPVPGFEGYREPLCLSPASSGSSASFISDTFSPYTSPCVSPNNGGPDDLCPQFQNIPAHYSPRTSPIMSPRTSLAEDSCLGRHSPVPRPASRSSSPGAKRRHSCAEALVALPPGASPQRSRSPSPQPSSHVAPQDHGSPAGYPPVAGSAVIMDALNSLATDSPCGIPPKMWKTSPDPSPVSAAPSKAGLPRHIYPAVEFLGPCEQGERRNSAPESILLVPPTWPKPLVPAIPICSIPVTASLPPLEWPLSSQSGSYELRIEVQPKPHHRAHYETEGSRGAVKAPTGGHPVVQLHGYMENKPLGLQIFIGTADERILKPHAFYQVHRITGKTVTTTSYEKIVGNTKVLEIPLEPKNNMRATIDCAGILKLRNADIELRKGETDIGRKNTRVRLVFRVHIPESSGRIVSLQTASNPIECSQRSAHELPMVERQDTDSCLVYGGQQMILTGQNFTSESKVVFTEKTTDGQQIWEMEATVDKDKSQPNMLFVEIPEYRNKHIRTPVKVNFYVINGKRKRSQPQHFTYHPVPAIKTEPTDEYDPTLICSPTHGGLGSQPYYPQHPMVAESPSCLVATMAPCQQFRTGLSSPDARYQQQNPAAVLYQRSKSLSPSLLGYQQPALMAAPLSLADAHRSVLVHAGSQGQSSALLHPSPTNQQASPVIHYSPTNQQLRCGSHQEFQHIMYCENFAPGTTRPGPPPVSQGQRLSPGSYPTVIQQQNATSQRAAKNGPPVSDQKEVLPAGVTIKQEQNLDQTYLDDVNEIIRKEFSGPPARNQT
- fold increase of association by PEDF combined with VEGF or bFGF: > 20 fold
